# Assay results published in the supplement of paper PMC9170038.
# Tested on: MS2 coat protein
# Test: apparent KD of MS2 coat protein; designed switch direction (-1 OFF switch, 1 ON switch): -1; higher = weaker reporter binding
# Method in brief: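 Each step of the titration lasted 0.8–1.5 h at the lowest concentration and 10–20 min at the highest. The protein, SNAP-549-labelled MS2 coat protein, went from 0.7 or 1.5 nM doubling to 3 µM over RNA switches transcribed on Illumina chips by stalled E. coli RNA polymerase. Normalised cluster fluorescence was curve-fitted, and the per-design median over clusters is given as apparent KD.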
# [1] = input ligand: microRNA oligo, concentration not stated
# [2] = Eterna round: R95, input ligand: FMN 200 uM
# [3] = Eterna round: R95, input ligand: microRNA oligo, concentration not stated
# [4] = Eterna round: R95, input ligand: none
Sequence,apparent KD of MS2 coat protein [1] [nM],apparent KD of MS2 coat protein [2] [nM],apparent KD of MS2 coat protein [3] [nM],apparent KD of MS2 coat protein [4] [nM],apparent KD of MS2 coat protein (input ligand: FMN 200 uM) [nM],apparent KD of MS2 coat protein (input ligand: none) [nM]
"ACGAAACAUGAGGAUCACCCAUGUGAGGAUAUGUAAAUAGUAAACAAAUAAGAAAUAAACAGAAGGCACACAGG [JR_Exclusion1_Sub004] (Eterna round: R96, puzzle: Exclusion 1)",24.3,–,–,–,–,–
ACGAAACAUGAGGAUCACCCAUGUGAGGAUAUGUAAAUAGUAAACAAAUAAGAAAUAAACAGAAGGCACACAGG [JR_Exclusion1_Sub004] (puzzle: Exclusion 1),–,57.2,26.3,28.2,–,–
"ACGAAGCACGAGGAUAUGACCAUAGUGAUAUGGUCAGAAGGCGUAACAUGAGGAUCACCCAUGUAGUGGCCUCG [Eternabot (Original) Solution 12] (Eterna round: R97, puzzle: Exclusion 6)",–,–,–,–,212,20.1
"ACGCAUUGCCAAAGGUAGUGCGUUACAUGAGGAUCACCCAUGUAGGAUAUGGUAGGCAAAGCUUACCAGAAGGACAUGAUAAUU [Mat - Exclusion NG 3 - Mod of JL - D6] (Eterna round: R96, puzzle: Exclusion NG 3)",44.8,–,–,–,227,51.2
"ACGCAUUGCCUUUGGUAGUGCGUAACAUGAGGAUCACCCAUGUAGGAUAUGGUAGGCAAAGCUUACCAGAAGGACAUAAUAAUU [Mat - Exclusion NG 3 - Mod of JL - D3] (Eterna round: R96, puzzle: Exclusion NG 3)",31.4,–,–,–,73,32.7
"ACGCCGCAAGGAUAUACUUGCGGUGAUGUUCGAGUUCUUCUACUUGAGGAUCACCCAAGUAGAAGGUGCAAAAC [jl-ex2.4.60 ViennaUCT mod] (Eterna round: R97, puzzle: Exclusion 2)",–,–,–,–,14.9,14
"ACGCGAGUAGGAGGAUAUUCCGAGCGCGGGCCGGGAGAAGGCCUAGAUCGUGAACAUGAGGAUCACCCAUGUGGGAUGAUCUAA [Ededaranri] (Eterna round: R96, puzzle: Exclusion NG 1)",94.9,–,–,–,8.23,313
ACGUAUAGAGGAUAUAGUGAAUAUUACAUGAGGAUCACCCAUGUUCUUCAAAGCAUAUUCCUAGAAGGCUAAUGAA [EX-5 Malc#12] (puzzle: Exclusion 5),–,113,44.4,56.4,–,–
"ACGUCCUUGGUAAGGAUAUCGAUGGAGGCGAUCCACGAGAAGGUACAUGAGGAUCACCCAUGUAUACGAAUACG [Eternabot (L1) Solution 94] (Eterna round: R97, puzzle: Brourd's mod of Exclusion 4)",–,–,–,–,18.4,17.8
"ACUAAACAUGUAGGAUAUGCGUGGCGAAGCUAUGCAGAAGGACAUGAGGAUCACCCAUGUUUUAGCGUCUGCGUACAGAUGCGU [JL ENG1 1.44] (Eterna round: R96, puzzle: Exclusion NG 1)",17.5,–,–,–,200,22.7
"ACUACUAACACGAAAGUGUUAGUACAAUAAGCUUGUGAAACAUGAGGAUCACCCAUGUCCUCAUAAGCUCGUCUUAA [salish99_TOv2_r3_012] (puzzle: Sensor v3, turn-off variant 2)",–,14.4,211,13.8,–,–
ACUAGAUGAGGAUAUACACAUUUUAGUGUUCCUCUAGAUUAACAUGAGGAUCACCCAUGUAGAAGGCAUCAUUA [Exclusion 2 - 9] (puzzle: Exclusion 2),–,–,65,–,–,–
ACUAGAUGAGGAUAUGCAUGUUUUCGUGUUCUUCUAGAUUAACAUGAGGAUCACCCAUGUAGAAGGCGUCAAUU [Exclusion 2 - 28] (puzzle: Exclusion 2),–,–,48,–,–,–
"ACUCAGUCAGGAUAUCAAUCCGCCUGUGAUACGCAGGCGGCUGAGAAGGGACAUGAGGAUCACCCAUGUAAAGA [jl-ex4-4.18 ViennaUCT mod] (Eterna round: R97, puzzle: Exclusion 4)",–,–,–,–,538,129
"ACUGGAGCAGGAUAUACAUAACGUGCUUCGGCACGAGAUCUACAUGAGGAUCACCCAUGUAGAAGGGCUCCAGU [E2/10-D1] (Eterna round: R97, puzzle: Exclusion 2)",–,–,–,–,28.3,13.3
"ACUGGUCGAGGAUAUACAUGAGGAUCACCCAUGUGGUCACGUGACGAUAGUCACGAAUGUAGAAGGCGACCAGU [E3/3-A2] (Eterna round: R97, puzzle: Exclusion 3)",–,–,–,–,15.7,123
"ACUGGUCGAGGAUAUACAUGAGGAUCACCCAUGUGGUCACGUGACUUCGGUCACGAAUGUAGAAGGCGACCAGU [E3/3-A5] (Eterna round: R97, puzzle: Exclusion 3)",–,–,–,–,61.4,188

Sequence,apparent KD of MS2 coat protein [1] [nM],apparent KD of MS2 coat protein [2] [nM],apparent KD of MS2 coat protein [3] [nM],apparent KD of MS2 coat protein [4] [nM],apparent KD of MS2 coat protein (input ligand: FMN 200 uM) [nM],apparent KD of MS2 coat protein (input ligand: none) [nM]
"ACUGUUUGAUUCCUCUUAUACAUGAGGAUCACCCAUGUUAUCGAGGAUAUGCAUUAGAGUGUUUAGCAGAAGGCGAUGUAAUUG [JR_ExcNG3_Sub033] (Eterna round: R96, puzzle: Exclusion NG 3)",8.68,–,–,–,112,17.9
"ACUUACUGAGGAUAUACAUAGAUAAACAUGAGGAUCACCCAUGUUCCUAUAAGUAUAUAUGUAGAAGGCAGAAGAA [JR_Ex5_Sub074] (Eterna round: R97, puzzle: Exclusion 5)",–,–,–,–,24.2,14.7
"ACUUAUAGAGGAUAUACAGAAUAUUACAUGAGGAUCACCCAUGUUCUUCAAUGUAUAUAAGUAGAAGGCUAAGGUU [Mat - Exclusion 5 - JL Mod - D5] (Eterna round: R97, puzzle: Exclusion 5)",–,–,–,–,282,33.4
"ACUUAUAGAGGAUAUACAGUUUAUUACAUGAGGAUCACCCAUGUUCUUCAAUGUCCUAAAGUAGAAGGCUAAGGAA [Mat - Exclusion 5 - Eli Mod - D12] (Eterna round: R97, puzzle: Exclusion 5)",–,–,–,–,18.8,16.2
"ACUUAUUGAGGAUAUACAGAUUAUUACAUGAGGAUCACCCAUGUUCUUCAAUGUAUAUAUGUAGAAGGCAGAGGAU [Mat - Exclusion 5 - JL Mod - D13] (Eterna round: R97, puzzle: Exclusion 5)",–,–,–,–,221,73.7
"ACUUAUUGAGGAUAUACAUAAAUUUACAUGAGGAUCACCCAUGUUCUUCUAUGUAUAUAUGUAGAAGGCAGAAGAG [Mat - Exclusion 5 - JL Mod - D33] (Eterna round: R97, puzzle: Exclusion 5)",–,–,–,–,30.1,17.2
"ACUUGCUUUUUGCUCGUCUUAUUUUUGUUGACGUUCUAUACAUGAGGAUCACCCAUGUUUUGUUCCUUGUGCUGGUA [JR_SV3TOV2_Sub073] (puzzle: Sensor v3, turn-off variant 2)",–,169,183,166,–,–
AGAAAGCAAGGAUAUACAAAGAAACGACCGAAAGAAAAGAAACAUGAGGAUCACCCAUGUAGAAGGUGCAAGAA [JR_Exclu2_Sub031] (puzzle: Exclusion 2),–,19,12.8,17.7,–,–
AGAAAGCAAGGAUAUACGAGGAGAAGGUGGAGAGUUAAAGGACAUGAGGAUCACCCAUGUAGAAGGUGCGAGAA [JR_Exclu2_Sub044] (puzzle: Exclusion 2),–,122,67.1,72,–,–
"AGAAAGGCCCAUGGCCGCAAGCUUUUUGCUUGUCUUACCACAUGAGGAUCACCCAUGUGACAUGGGCUCCUGAUAAU [Atveuser] (puzzle: Sensor v3, turn-off variant 2)",–,14.3,10.4,13.3,–,–
"AGAAGUAGAAACCGAUCCUACAUGAGGAUCACCCAUGUAGCAAGACGUGCACGCGAAGCUCGUCAGACUACCAGAAU [salish99_TOv1_r3_006] (puzzle: Sensor v3, turn-off variant 1)",–,340,193,347,–,–
"AGAAGUAGUAACCGAUCCUACAUGAGGAUCACCCAUGUAGCUAGACGUGCACGCGAGGCUCGUCAGACUACCAGAUG [salish99_TOv1_r3_028] (puzzle: Sensor v3, turn-off variant 1)",–,210,133,289,–,–
"AGACGAUCGUAGGAUAUCGGAAGGUCACUGGACUGAGAAGGACGAACAUGAGGAUCACCCAUGUGAUCUCUGGU [Eternabot (L2) Solution 43] (Eterna round: R97, puzzle: Exclusion 6)",–,–,–,–,779,734
"AGAGAAUACUCAGGAUAUCUUAAUAGAAAGAAUAGAGAAGGGAGACAUGAGGAUCACCCAUGUGAAGUCUUGAGACUACAUGGU [Prohibition 29 - Jieux - Exclusion NG 1] (Eterna round: R96, puzzle: Exclusion NG 1)",218,–,–,–,–,–
"AGAGACCGAGGAUAUCCCAGAACUCACAUGAGGAUCACCCAUGUGUAGAUUGGGUGUCACGGAGAAGGCGGAUCGC [EX5 C.21] (Eterna round: R97, puzzle: Exclusion 5)",–,–,–,–,14,13.8
AGAGAGUCAGGAUAUCGAAGGGAGAGGAAAGGAGAGAGGGACGAGAAGGGACAUGAGGAUCACCCAUGUAGGUG [JR_Exclusion4)Sub016] (puzzle: Exclusion 4),–,233,200,432,–,–
